Data taken from publication doi:10.1101/2022.06.01.494241.

Target: mLight (rat)
Settings: scale: % ΔF/Fo

[D-Ala^2, N-MePhe^4, Gly-ol]-enkephalin (peptide)
sensor fluorescence response (ΔF/Fo) in HEK293 cells, 500 nM to 100 μM DAMGO: 9.06
